This data set concerns the molecule itself. The experiment in a line: cryo-EM structure; ADP-bound hLon variants, 1.3 mg/ml, single-particle cryo-EM (cryoSPARC); homo-hexamer.

B1: human Lon protease Y394E phosphorylation-mimicking mutant (enzyme, UniProt P36776 68-959, looked up)
chain: FWEASSRGGGAFSGGEDASEGGAEEGAGGAGGSAGAGEGPVITALTPMTIPDVFPHLPLIAITRNPVFPRFIKIIEVKNKKLVELLRRKVRLAQPYVGVFLKRDDSNESDVVESLDEIYHTGTFAQIHEMQDLGDKLRMIVMGHRRVHISRQLEVEPEEPEAENKHKPRRKSKRGKKEAEDELSARHPAELAMEPTPELPAEVLMVEVENVVHEDFQVTEEVKALTAEIVKTIRDIIALNPLYRESVLQMMQAGQRVVDNPIYLSDMGAALTGAESHELQDVLEETNIPKRLYKALSLLKKEFELSKLQQRLGREVEEKIKQTHRKELLQEQLKIIKKELGLEKDDKDAIEEKFRERLKELVVPKHVMDVVDEELSKLGLLDNHSSEFNVTRNYLDWLTSIPWGKYSNENLDLARAQAVLEEDHYGMEDVKKRILEFIAVSQLRGSTQGKILCFYGPPGVGKTSIARSIARALNREYFRFSVGGMTDVAEIKGHRRTYVGAMPGKIIQCLKKTKTENPLILIDEVDKIGRGYQGDPSSALLELLDPEQNANFLDHYLDVPVDLSKVLFICTANVTDTIPEPLRDRMEMINVSGYVAQEKLAIAERYLVPQARALCGLDESKAKLSSDVLTLLIKQYCRESGVRNLQKQVEKVLRKSAYKIVSGEAESVEVTPENLQDFVGKPVFTVERMYDVTPPGVVMGLAWTAMGGSTLFVETSLRRPQDKDAKGDKDGSLEVTGQLGEVMKESARIAYTFARAFLMQHAPANDYLVTSHIHLHVPEGATPKDGPSAGCTIVTALLSLAMGRPVRQNLAMTGEVSLTGKILPVGGIKEKTIAAKRAGVTCIVLPAENKKDFYDLAAFITEGLEVHFVEHYREIFDIAFPDEQAEALAVER
notes: human mitochondrial Lon protease (LONP1) lacking the N-terminal MTS, with Y394E; also called hLon Y394E; source: E. coli Rosetta 2 (DE3) or E. coli C321 (DE3), purified (NiNTA agarose, Superose 6 SEC)
Consider B1, for which the stoichiometry N (as a rule, the number of molecules, sites or subunits per partner or assembly) is 6.

The record behind these values is publication PMC11061198, “Polyphosphate and tyrosine phosphorylation in the N-terminal domain of the human mitochondrial Lon protease disrupts its functions” (Scientific Reports, 2024).
